# Laboratory results: the nanobody polyreactivity screen of Harvey et al. (2022)
# Test: yeast display, Sf9 membrane polyspecificity reagent, FACS + sequencing; frameworks hold sequencing errors
# In short: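 Synthetic nanobody libraries on Saccharomyces cerevisiae BJ5465 were galactose-induced for 36–48 hours, stained 1 hour at 4 °C with 10% biotinylated, detergent-solubilized Sf9 membrane reagent and enriched on streptavidin microbeads. FACS then separated cells into low and high (top ~1%) gates by anti-HA (expression) and streptavidin (reagent binding) fluorescence. Genes were colony-PCR amplified, MiSeq 2 × 250 sequenced and CDR-length filtered. A clone's polyreactivity label is that of its gate of origin.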
row,Sequence,polyreactivity (PSR sort gate)
1,QVQLVESGGGLVQAGGSLRLSCAASGITFYGYTMGWYRQAPGKERELVATITRGGSTYYADSVKGRFTISRDNAKNSVYLQMNSLKPEDTAVYYCAADLKGNYYLGIARYVLYYWGQGTQVTVSS,low polyreactivity
2,QVQLVESGGGLVQAGGSLRLSCAASGITFYIKAMGWYRQAPGKERELVAVIDSRGSSTFYADSVKGRFTISRDNAKNTVYLQMNSLKPEDTAVYYCAVEGYPGRYRDPGDLYYYWGQGTQVTLSS,low polyreactivity
3,QVQLVESGGGLVQAGGSLRLSCAASGITFYINAMGWYRQAPAKERELVAVIDSRGSSTFYADSVKGRFTISRDNAKNTVYLLMNSLKPEDTAVYYCAVEGYPGRYRDPGDLYYYWGQGTQVTLSS,low polyreactivity
4,QVQLVESGGGLVQAGGSLRLSCAASGITFYKYAMGWYRQAPGKERELVASISNGGNTNYADSVKGRFTISSDNAKNTVYLQMNSLKPEDTAVYYCAAGRQWYSYYRNDYWGQGTQVTVSS,high polyreactivity
5,QVQLVESGGGLVQAGGSLRLSCAASGITFYKYVMGWYRQAPGKEREFVAAITWSGDSTYADSVKGRFTISRDNAKNTVYLQMNSLKPEDTAVYYCAARTWSRRQREYDYWGQGTQVTVSS,high polyreactivity
6,QVQLVESGGGLVQAGGSLRLSCAASGITFYLNAMGWYRQAPGKDRELVADITVSGGSTYYADSVKGRFTISRDNAKNTVYLQMNSLKPEDTAVYYCAADLTISYSQEYYYWGQGTQVTLSS,low polyreactivity
7,QVQLVESGGGLVQAGGSLRLSCAASGITFYLYTMGWYRQAPGKERELVAAISWRGGGTYYADSVKGRFTISRDNAKNTVYLQMNSLKPEDTAVYYCATVRTYARNDYWGQGTQVTVSS,high polyreactivity
8,QVQLVESGGGLVQAGGSLRLSCAASGITFYPNGMGWYRQAPGKEREFVAAISSSGGSTYYADSVKGRFTISRDNAKNSVYLQMNSLKPEDTAVYYCAAQYYAMSYYGYGYWGQGTQVTVSS,low polyreactivity
9,QVQLVESGGGLVQAGGSLRLSCAASGITFYRNAMGWYRQAPGKERELVATITRGGSTYYADSVKGRFTISRDNAKNTVYLQMNSLKPEDTAVYYCNRAGGYRTTFYSWGQGTQVTVSS,high polyreactivity
10,QVQLVESGGGLVQAGGSLRLSCAASGITFYRYALGWYRQAPGKERELVAAISSSGGSTYYADSVKGRFTISRDNAKNTVYLQMNRLKPEDTAVYYCNAYYSVEYYYWGQGTQVTVSS,high polyreactivity
11,QVQLVESGGGLVQAGGSLRLSCAASGITFYRYAMGWYRPAPGKERELVAAISSRGGRTYYADSVKGRFTISRDNEKNTVYLQMNSLKPEDTGVYYCAKGGIVGSTLEYDYWGQGTQVTVSS,high polyreactivity
12,QVQLVESGGGLVQAGGSLRLSCAASGITFYRYAMGWYRQAPGKERELVAAISWSGGSTYYADSVKGRFTFSRDNAKNTVYLQMNSLKPEDTAVYYCNKYIRYPFKRYGYWGQGTQVTLSS,high polyreactivity
13,QVQLVESGGGLVQAGGSLRLSCAASGITFYRYAMGWYRQAPGKERELVAAITGSGDSTYYADSVKGRFTISRDNAKNTVYLQMNSLKPEDTAVYYCNTDYGRRYDYWGQGTQVTVSS,high polyreactivity
14,QVQLVESGGGLVQAGGSLRLSCAASGITFYRYAMGWYRQAPGKERELVAAITRSVGRTYYADSVKGRFTISRDNAKNTVYLQMNSLKPEDTAVYYCAADSPYYRGDYYWGLGTQVTVSS,high polyreactivity
15,QVQLVESGGGLVQAGGSLRLSCAASGITFYRYVMGWYRQAPAKERELVAAITTGDSTSYADSVKGRFTISRDNAKNTVYLQMNSLKPEDTAVYYCAAVYYTALANYDYWGQGTQVTVSS,low polyreactivity
16,QVQLVESGGGLVQAGGSLRLSCAASGITFYSYAMGWYRQAPGKERELVAAITRGGSTYYADSVKGRFTISRDNAKNTVYLQMNSLKPEDTAVYYCAASPLGGYGYWGQGTQVTVSS,high polyreactivity
17,QVQLVESGGGLVQAGGSLRLSCAASGITFYVNAMGWYRQAPGKERELVAGIDSGGSTYYADSVKGRFTISRDNAKNTVYLQMNSLKPEDTAVYYCAARGSDYIRWYVGGRYGYWGQGTQVTVSS,low polyreactivity
18,QVQLVESGGGLVQAGGSLRLSCAASGITFYVNAMGWYRQAPGKERELVAVITFGGGSTYYADSVKGRFTISRDNAKNTVYLQMNSLKPEDTAVYYCAKDPTYSPYLPGPIFYYKEDYWGQGTQVTVSS,low polyreactivity
19,QVQLVESGGGLVQAGGSLRLSCAASGITFYVYAMGWYIPAPGKERELVAAINYDSGSTYYADSVKGRFTISRDNAKNTVYLQMNSLKPEDTAVYYCATDGVNPFYAYDYWGQGTQVTVSS,low polyreactivity
20,QVQLVESGGGLVQAGGSLRLSCAASGITFYVYAMGWYRQAPGKERELVAAISSGSSTYYADSVKGRFTISRDNAKNTVYLQMNSLKPEDTAVYYCAARYRKYLSEYWGQGTQVTVSS,high polyreactivity
21,QVQLVESGGGLVQAGGSLRLSCAASGITFYVYAMGWYRQAPGKERELVAAISSGSSTYYSDSVKGRFTISRDNAKNTVYLQMNSLKPEDTAVYYCAARYRKYLSEYWGQGTQVTVSS,high polyreactivity
22,QVQLVESGGGLVQAGGSLRLSCAASGITFYWYAMGWYRQAPGKERELVASITGNGGGTSYADSVKGRFTISRDNAKNTVYLQMNSLKPEDTAVYYCNTSVGGKEYDSWGQGTQVTVSS,low polyreactivity

row,Sequence,polyreactivity (PSR sort gate)
1,QVQLVESGGGLVQAGGSLRLSCAASGITFYYYAMGWYRQAPGKERELVAAISFRGGSTYYADSVKGRFTISRDNAKNTVYLQMNSLKPEDTAVYYCAAETSPSWYTWVTYDYWGQGTKVTVSS,high polyreactivity
2,QVQLVESGGGLVQAGGSLRLSCAASGITIGRNTMGWSRQAPRKERELVAAIDSGGNTYADSVKGRFSISRDNAMNTVYLQMNSLKPEDTAVYYCAVDGGEFSSYGFWGQGTQVTVSS,low polyreactivity
3,QVQLVESGGGLVQAGGSLRLSCAASGITINGYVMGWYRQAPGKERELVAAITSGARTYYADSVKGRFTISRDNAKNTVYLQMNSLKPEDTAVYYCAASIWLYRYYYWGQGTQVTVSS,high polyreactivity
4,QVQLVESGGGLVQAGGSLRLSCAASGITIVNYVMGWYRQAPGKERELVAAISIGGGTYYADSVKGRFTISRDNAKNTVYLQINSLKPEDTAVYYCNASYGGLSFYIGVYVTGYDYWGQGTQVTVSS,low polyreactivity
5,QVQLVESGGGLVQAGGSLRLSCAASGITIVRNAMGWYRQAPGKERELVAAISSGGSTYYADSVKGRFTISRDNAKISVYLQMNSLKPEDTAVYYCAAVPEYYEYSPYDYWGQGTQVTVSS,low polyreactivity
6,QVQLVESGGGLVQAGGSLRLSCAASGITIVRYAMGWSRQAPGKERELVAAINRSGGSTYYADSVKGRFTISRDNAKNTVYLQMNSLKPEDTAVYYCAARLYGKYDPPGYYYWGQGTQVTVSS,high polyreactivity
7,QVQLVESGGGLVQAGGSLRLSCAASGITIYEYAMGWYRQAPGKERELVAAITSGGTTNYADSVKGRFTISRDNAKNTVYLQMNSLKPEDTAVYYCAKDGGEGYDYWGQGTQVTVSS,low polyreactivity
8,QVQLVESGGGLVQAGGSLRLSCAASGITIYGYAMGWYRQAPGKERELVAAISFRSGSTYYADSVKGRFTISRDNAKNTVYLQMNSLKPEDTAVYYCATDRYYRDDYWGQGTQVTVSS,low polyreactivity
9,QVQLVESGGGLVQAGGSLRLSCAASGITIYRNAMGWYRQAPGKEMELVAAITRNGGRTYYADSVKGRFTISRDNAKNTVYLQMNSLKPEDTAVDYCAADSGTRNLASYRYYYWGQGTQVTVSS,high polyreactivity
10,QVQLVESGGGLVQAGGSLRLSCAASGITIYWYAMGWYRQAPGKERELVAAITRSVGSTYYADSVKGRFTISRDNAKNTVYLQMNSLKPEDTAVYYCAADFYYYGFDYWGQGTQVTVSS,low polyreactivity
11,QVQLVESGGGLVQAGGSLRLSCAASGITLFHYVMGWYRQAPGKERELVADITWRGGNTFYADSVKGRFTISRDNAKNTVYLQMNSLKPEDTAVYYCAVRQAYRTRDYDYWGQGTQVTVSS,high polyreactivity
12,QVQLVESGGGLVQAGGSLRLSCAASGITLGAYAMGWYRQAPGKERELVARIRIGGSTYYADSVKGRFTISRDNAKNTVYLQMNSLKPEDTAVYYCNRDFWYGVATGREFYLYDYWGQGTQVTVSS,low polyreactivity
13,QVQLVESGGGLVQAGGSLRLSCAASGITLGYSAMGGYRQAPGKEREFVAGITTSGGTTYYADSVKGRFTISRDNAKNTVYLQMNSLKPEDTAVYYCAVYGGVKRGSFYYWGQGTQVTVSS,low polyreactivity
14,QVQLVESGGGLVQAGGSLRLSCAASGITLKYYAIGWYIQAPGKERELVAAITRSGVGTYYADSVKGRFTISRDNAKNTVYLQMNSLKPEDTAVYYCAAASYQSRYWNYYWGQGTQVTVSS,high polyreactivity
15,QVQLVESGGGLVQAGGSLRLSCAASGITLNGYVMGWYRQAPGKEREFVAVISSRGGSTYYADSVKGRFTISRDNAKNTVYLQMNSLKPEDTAVYYCAARWGYSRRGYRGYDYWGQGTQVTVSS,high polyreactivity
16,QVQLVESGGGLVQAGGSLRLSCAASGITLNRNAMGWYRQAPGKERELVARISRRGGTTYYADSVKGRFSISRDNAKNTVYLQMNSLKPEDTAVYYCNAGPYGGNPFDYWGQGTQVTVSS,high polyreactivity
17,QVQLVESGGGLVQAGGSLRLSCAASGITLSIYAMGWYRQAPGKERELVAAIDWSDGSTYYADSVKGRFTISRDNAKNTVYLQMNSLKPEDTAVYYCAAEYHWSYWWPTDDYWGQGTQVTVSS,high polyreactivity
18,QVQLVESGGGLVQAGGSLRLSCAASGITLSVYAMGWYRQAPRKERELVASISSGGTSTYYADSVKGRFTISRDNAKNTVYLLMISLKPEDTAVYYCAAYSYYTGDQYSYDYWGQGTQVTVSS,low polyreactivity
19,QVQLVESGGGLVQAGGSLRLSCAASGITLTVYTMGWYRQAPGKERKLVAAITYGGTSTYYADSVKGRFTISRDNAKNTVYLQMNSLKPEDTAVYYCNVAFGYSYRGRDYWGQGTQVTVSS,high polyreactivity
20,QVQLVESGGGLVQAGGSLRLSCAASGITLVFNAMGWYRQAPGKERELVAAITSGGITNYADSVKGRFTISRDNAKNTVYLQMNSLKPEDTAVYYCATDYGYFHYPWCPLWGYEYWGQGTQVTVSS,low polyreactivity
21,QVQLVESGGGLVQAGGSLRLSCAASGITLVRYAMGWYRQAPGKERELVAAISSSGGSTYYADSVKGRFTISRDTAKNTVYLQMNSLKPEDTAVYYCNAYVHSRRVEFNYWGQGTQVTVSS,high polyreactivity
